The record followed here is patent publication US20220064291A1 (Merck Sharp & Dohme, published 2022).

First the molecules themselves.
B1: BTN3A1-Fc (recombinant human BTN3A1 Fc-chimera, HEK293-expressed, R&D Systems) (Fc fusion, not shown: a dimerising Fc or GST)
chain: not shown

In assay [1] the target is anti-BTN3A antibody (clone 20.1, Biolegend, catalog #342702). Description: cell-based or functional assay.
In assay [2] the target is B1. As to the kind of experiment: binding affinity, method not stated (Octet named in text).
The target of assay [3] is T1, BTN2A2-Fc (recombinant human BTN2A2 Fc-chimera, HEK293-expressed, R&D Systems) (human, UniProt Q8WVV5 33-265).
T1 construct: Bought Fc-chimera; Biotinylated for the yeast display selections; not shown: Fc part of the bought Fc-chimera
T1 sequence (looked up): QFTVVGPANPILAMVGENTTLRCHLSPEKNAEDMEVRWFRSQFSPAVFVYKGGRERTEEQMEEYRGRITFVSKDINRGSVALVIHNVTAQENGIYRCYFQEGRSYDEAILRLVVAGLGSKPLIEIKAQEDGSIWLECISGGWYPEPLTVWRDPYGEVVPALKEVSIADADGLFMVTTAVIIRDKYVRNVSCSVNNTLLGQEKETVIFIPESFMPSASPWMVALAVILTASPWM
As to the kind of experiment: Octet isoform binding screen. (In general: In BLI a coated tip is dipped into the sample, and binding shifts an interference pattern.)

In assay [4] the target is T2, BTN3A3-Fc (recombinant human BTN3A3 Fc-chimera, HEK293-expressed, R&D Systems) (human, UniProt O00478 30-248).
T2 construct: Bought Fc-chimera; Biotinylated for the yeast display selections; not shown: Fc part of the bought Fc-chimera
As to the kind of experiment: Octet isoform binding screen.

In assay [5] the target is T3, BTN3A2-Fc (recombinant human BTN3A2 Fc-chimera, HEK293-expressed, R&D Systems) (human, UniProt P78410 30-248).
T3 construct: Bought Fc-chimera; Biotinylated for the yeast display selections; not shown: Fc part of the bought Fc-chimera
As to the kind of experiment: Octet isoform binding screen.

The target in assay [6] is T2, BTN3A3-Fc (recombinant human BTN3A3 …). Description: binding affinity, method not stated (Octet named in text).
For assay [7], the target named is T3, BTN3A2-Fc (recombinant human BTN3A2 …). The description is as above.

T2 sequence (O00478 30-248, change not shown): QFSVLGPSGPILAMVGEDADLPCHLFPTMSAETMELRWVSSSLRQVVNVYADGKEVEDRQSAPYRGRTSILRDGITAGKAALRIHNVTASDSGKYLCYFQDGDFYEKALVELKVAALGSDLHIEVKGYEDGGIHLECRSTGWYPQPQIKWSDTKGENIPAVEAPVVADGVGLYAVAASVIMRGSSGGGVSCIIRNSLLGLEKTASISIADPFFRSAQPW
T3 sequence (P78410 30-248, change not shown): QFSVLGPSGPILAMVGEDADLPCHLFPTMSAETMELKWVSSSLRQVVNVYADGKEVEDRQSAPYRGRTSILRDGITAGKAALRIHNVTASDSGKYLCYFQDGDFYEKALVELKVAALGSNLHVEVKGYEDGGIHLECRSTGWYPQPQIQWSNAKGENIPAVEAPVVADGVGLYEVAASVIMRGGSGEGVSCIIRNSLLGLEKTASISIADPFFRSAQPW

As for B1, the “IC50 (read off the curve): inhibition of 20.1-mediated reactivation of latent HIV (luciferase RLU)” value in assay [1] was ~0.2 mg/L.

B2: Antibody 1F (antibody, IgG1, V domains shown)
VH: QVQLQESGPGLVKPSQTLSLTCTVSGGSISSGGYYWSWIRQHPGKGLEWIGSIYYSGSTYYNPSLKSRVTISVDTSKNQFSLKLSSVTAADTAVYYCARLHSSQSSSTYWGQGTLVTVSS
VL: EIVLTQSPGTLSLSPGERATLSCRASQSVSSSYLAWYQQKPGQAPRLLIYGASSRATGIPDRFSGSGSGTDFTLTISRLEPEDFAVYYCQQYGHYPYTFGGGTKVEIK
notes: isotype hIgG1-297A (IgG1 N297A); kappa germline VK3-20.0
The Kd is the concentration at which binding is half-saturated. Regarding B2, in assay [2], the Kd amounted to 1.53 nM. For the same molecule, the binding result in assay [3], in assay [4] and in assay [5] was “no binding” throughout.

B3: Antibody 1G (antibody, IgG1, V domains shown)
VH: QVQLVQSGAEVKKPGASVKVSCKASGYTFTSYGISWVRQAPGQGLEWMGWISAYNGNTNYAQKLQGRVTMTTDTSTSTAYMELRSLRSDDTAVYYCARLGATVAYFDLWGRGTLVTVSS
VL: EIVLTQSPATLSVSPGERATLSCRASQSVSSNLAWYQQKPGQAPRLLIYGASTRATGIPARFSGSGSGTEFTLTISSLQSEDFAVYYCQQDVYWPFTFGGGTKVEIK
notes: isotype hIgG1-297A (IgG1 N297A); kappa germline VK3-15.10
B3: the figures for the dissociation constant Kd in assay [6], in assay [7] and in assay [2] were 1.13 nM, 2.71 nM and 0.974 nM, respectively. In addition, the binding result in assay [3] is given as “no binding”.

B4: Antibody 2A (antibody, IgG1, V domains shown)
VH: QVQLVQSGAEVKKPGASVKVSCKASGYTFTSYYIHWVRQAPGQGLEWMGIINPSGGSTSYAQKFQGRVTMTRDTSTSTVYMELSSLRSEDTAVYYCARATWEALHYWGQGTLVTVSS
VL: EIVMTQSPATLSVSPGERATLSCRASQSVGSNLAWYQQKPGQAPRLLIYGASTRATGIPARFSGSGSGTEFTLTISSLQSEDFAVYYCQQYYAWPRTFGGGTKVEIK
notes: isotype hIgG1-297A (IgG1 N297A); kappa germline VK3-15.1
Regarding B4, the equilibrium dissociation constant (Kd) in assay [6] was 8.52 nM; in assay [2] it was 4.38 nM. The binding result in assay [3] and in assay [5] was “no binding” throughout.

B5: Antibody 3B (antibody, IgG1, V domains shown)
VH: QVQLVQSGAEVKKPGASVKVSCKASGYTFTSYYMHWVRQAPGQGLEWMGIINPSGGSTSYAQKFQGRVTMTRDTSTSTVYMELSSLRSEDTAVYYCARPSGDYSGYDALDVWGQGTMVTVSS
VL: EIVLTQSPATLSLSPGERATLSCRASQSVSSYLAWYQQKPGQAPRLLIYDASNRATGIPARFSGSGSGTDFTLTISSLEPEDFAVYYCQQDPYWPITFGGGTKVEIK
notes: isotype hIgG1-297A (IgG1 N297A); kappa germline VK3-11.0
Take B5: the Kd in assay [6] was found to be 2.08 nM; in assay [7] it was 4.57 nM; in assay [2] it was 2.1 nM. For the same molecule, the binding result in assay [3] was “no binding”.

B6: Antibody 3A (antibody, IgG1, V domains shown)
VH: QVQLVQSGAEVKKPGASVKVSCKASGYTFTSYYMHWVRQAPGQGLEWMGIINPGGGSTSYAQKFQGRVTMTRDTSTSTVYMELSSLRSEDTAVYYCARDAGHDYGDMAYWGQGTLVTVSS
VL: DIQMTQSPSTLSASVGDRVTITCRASQSISSWLAWYQQKPGKAPKLLIYKASSLESGVPSRFSGSGSGTEFTLTISSLQPDDFATYYCQQYRSFPTFGGGTKVEIK
notes: isotype hIgG1-297A (IgG1 N297A); kappa germline VK1-05.6
B6: the Kd is 1.4 nM in assay [6] and 2.76 nM in assay [2]. Further, the binding result in assay [3] and in assay [5] was “no binding” each time.

B7: Antibody 2L (antibody, IgG1, V domains shown)
VH: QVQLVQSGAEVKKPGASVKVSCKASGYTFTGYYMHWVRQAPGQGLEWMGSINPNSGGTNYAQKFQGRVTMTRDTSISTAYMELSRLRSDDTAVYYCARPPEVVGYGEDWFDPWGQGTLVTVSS
VL: DIQMTQSPSSVSASVGDRVTITCRASQGISSWLAWYQQKPGKAPKLLIYAASNLQSGVPSRFSGSGSGTDFTLTISSLQPEDFATYYCQQGNDLPITFGGGTKVEIK
notes: isotype hIgG1-297A (IgG1 N297A); kappa germline VK1-12.7
In the case of B7, the Kd in assay [2] is 3.94 nM. Further, the binding result in assay [3], in assay [4] and in assay [5] was “no binding” throughout.
